Residue numbers refer to the chain shown, from its start. “And” between values parts separate entries of the source, which are not always exact repeats. Equal values may be shown once.
B1: mAb017 (antibody, V domains shown)
VH: QIQLVQSGPELKKPGETVKISCKASVYTFTEYAMHWVKQAPGKGFKWMGWINTNSGEPTYADDFKGRFAFSLETSASTAYLQINNLKNEDTATYFCGRGRVVGSFDYWGQGTTLTVSS
VL: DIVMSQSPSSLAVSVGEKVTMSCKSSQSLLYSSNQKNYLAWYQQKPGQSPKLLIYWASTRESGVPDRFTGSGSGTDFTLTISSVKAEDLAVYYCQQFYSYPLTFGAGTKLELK
notes: Murine monoclonal antibody purified from hybridoma supernatant; also called 36C7-1G2
B2: Tab#1 (antibody, human IgG2, kappa, V domains shown)
VH: QVQLVQSGAEVKKPGASVKVSCKASGYTFTNYYIHWVKQAPGQGLEWIGWIYPGDGSPKFNERFKGRTTLTADKSTNTAYMLLSSLRSEDTAVYFCATGPTDGDYFDYWGQGTTVTVSS
VL: DIQMTQSPSSLSASVGDRVTITCRASGNIHNFLAWYQQKPGKAPKLLIYNEKTLADGVPSRFSGSGSGTDYTLTISSLQPEDFATYFCQQFWSTPYTFGGGTKVEIKR
notes: also called Quetmolimab; CX3CL1阳性对照抗体
B3: HumAb022-4 (antibody, human IgG2, kappa, V domains shown)
VH: EVQLVQSGAEVKKPGATVKISCKASGYTFTDYYMNWVQQAPGKSLEWMGDINPNQGGTNYNQKFKGRVTLTVDKSTSTAYMELSSLRSEDTAVYYCASSGNSYVDYWGQGTTVTVSS
VL: DIQMTQSPSSLSASVGDRVTITCKASQDVSTAVAWYQQKPGKAPKLLLYWASTRHTGVPSRFSGSGSGTDYTLTISSLQPEDFATYYCQQHYSSPYTFGGGTKVEIKR
notes: Full-length humanized IgG2/kappa antibody
B4: C032 (antibody, human IgG2, kappa, V domains shown)
VH: EVQLQQSGPELVKPGASVKISCKASGYTFTDYYMNWVKQSHGKSLEWIGDINPNNGGTSYNQKFKGKATLTVDKSSSTAYMELRSLTSEDSAVYYCASSGNSYVDYWGQGTTLTVSS
VL: DIVMTQSHKFMSTSVGDRVSITCKASQDVSTAVAWYQQKPGQSPKLLIYWASTRHTGVPDRFTGSGSGTDYTLTISSVQAEDLALYYCQQHYSSPYTFGGGTKLEIKR
notes: Human-mouse chimeric antibody of mAb032 with human IgG2 constant region, expressed in CHOK1; also called 嵌合抗体C032
B5: mAb022 (antibody, V domains shown)
VH: B4 VH with S59N, Y94F
VL: DIVMTQSHKFMSTSVGDRVNITCKASQDVSTAVAWYQQKPGQSPKLLIYWASTRHTGVPDRFTGSGSGTDYTLTISSVQAEDLALYYCQQHYSSPYTFGGGTKLEIK
notes: Murine monoclonal antibody purified from hybridoma supernatant; also called 15F7B2
B6: C032QG (antibody, human IgG2, kappa, V domains shown)
VH: B4 VH with N55Q
VL: B4 VL
notes: Chimeric IgG2 mutant of C032 removing the NG hot spot of HCDR2 (NG to QG)
B7: mAb032 (antibody, V domains shown)
VH: B4 VH
VL: B5 VL with N20S
notes: Murine monoclonal antibody purified from hybridoma supernatant; also called 18H6F1
B8: C022 (antibody, human IgG2, kappa, V domains shown)
VH: B4 VH with S59N, Y94F
VL: B4 VL with S20N
notes: Human-mouse chimeric antibody of mAb022 with human IgG2 constant region, expressed in CHOK1; also called 嵌合抗体C022
B9: C032NA (antibody, human IgG2, kappa, V domains shown)
VH: B4 VH with G56A
VL: B4 VL
notes: Chimeric IgG2 mutant of C032 removing the NG hot spot of HCDR2 (NG to NA)
B10: HumAb032-4 (antibody, human IgG2, kappa, V domains shown)
VH: B3 VH with N59S
VL: B3 VL
notes: as for B3

Target: T1, 人CX3CL1胞外区蛋白 CX3CL1(Q25-Q341)-6xHis (human, UniProt P78423 25-341)
T1 sequence: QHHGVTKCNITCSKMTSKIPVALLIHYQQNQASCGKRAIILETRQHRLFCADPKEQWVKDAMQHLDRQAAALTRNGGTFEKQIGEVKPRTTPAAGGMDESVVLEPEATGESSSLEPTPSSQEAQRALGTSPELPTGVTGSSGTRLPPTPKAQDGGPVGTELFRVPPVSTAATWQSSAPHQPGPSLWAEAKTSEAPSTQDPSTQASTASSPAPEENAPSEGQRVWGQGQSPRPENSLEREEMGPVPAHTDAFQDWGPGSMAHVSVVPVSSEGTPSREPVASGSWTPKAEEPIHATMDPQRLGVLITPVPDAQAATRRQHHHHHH
Assay: cell-based or functional assay

Row | Binder | 抑制cAMP活性 IC50 | 抑制cAMP活性 MAX
1 | B1 | 0.7 nM | 100
2 | B2 | 5.69 nM and 4.07 nM | 
3 | B3 | 2.69 nM | 100
4 | B4 | 3.4 nM | 95.8
5 | B5 | 0.8 nM | 105
6 | B6 | 3.96 nM | 97
7 | B7 | 1.07 nM | 115
8 | B8 | 2.41 nM and 3.28 nM | 
9 | B9 | 3.63 nM | 92.5

Target: T1, 人CX3CL1胞外区蛋白 CX3CL1(Q25-Q341)-6xHis
Assay: FACS competition: antibody blocks huCX3CL1-His binding to CHOK1-hCX3CR1 cells

Row | Binder | IC50
10 | B1 | 6.1 nM
11 | B2 | 1.96 nM
12 | B10 | 1.22 nM
13 | B3 | 1.27 nM
14 | B4 | 0.731 nM
15 | B5 | 7.6 nM
16 | B6 | 0.811 nM and 1.49 nM
17 | B7 | 11.5 nM
18 | B8 | 0.885 nM and 1.7 nM
19 | B9 | 0.865 nM

Target: T1, 人CX3CL1胞外区蛋白 CX3CL1(Q25-Q341)-6xHis
Assay: cell-based or functional assay
Remark: another data set of the same source

Row | Binder | 抑制细胞迁移活性 IC50
20 | B1 | 7.55 nM
21 | B2 | 19 nM
22 | B3 | 0.299 nM
23 | B4 | 2.49 nM
24 | B5 | 7.19 nM
25 | B6 | 2.27 nM
26 | B7 | 8.72 nM
27 | B9 | 4 nM
